Values joined by “and” are separate entries in the source; they are usually repeats but may differ in a detail not shown here. Equal entries are not always repeated.
How the values were obtained:
[1] = target: human soluble CD3 (human) (UniProt P07766); assay: SPR Biacore pH 7.4, average
[2] = target: human soluble CD3 (human) (UniProt P07766); assay: SPR Biacore affinity
[3] = target: human soluble CD3 (human) (UniProt P07766); assay: SPR Biacore pH 7.4
[4] = target: human soluble CD3 (human) (UniProt P07766); assay: SPR Biacore 3000, antigen immobilised
[5] = target: human soluble CD3 (human) (UniProt P07766); assay: SPR
[6] = target: human soluble CD3 (human) (UniProt P07766); assay: SPR Biacore

Sequence of human soluble CD3 (human) (P07766 23-126, chain 1 of 2): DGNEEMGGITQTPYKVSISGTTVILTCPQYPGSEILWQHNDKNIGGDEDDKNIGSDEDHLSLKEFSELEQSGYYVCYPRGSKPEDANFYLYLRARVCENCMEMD
Sequence of human soluble CD3 (human) (P04234 22-105, chain 2 of 2, further chain): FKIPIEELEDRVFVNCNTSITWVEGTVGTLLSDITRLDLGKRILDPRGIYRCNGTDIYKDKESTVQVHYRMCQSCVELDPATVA

Kd [1] [nM] | Kd [2] [nM] | Kd [3] | koff [3] | kon [3] | t½ [3] | Kd [4] [nM] | koff [4] [s⁻¹] | kon [4] [M⁻¹ s⁻¹] | Kd [5] [nM] | Kd [6] [nM] | koff [6] [s⁻¹] | kon [6] [M⁻¹ s⁻¹] | Binder
4.71 | 4.71 | 4.65 nM and 4.77 nM | 0.00525 s⁻¹ and 0.00555 s⁻¹ | 1.13e+06 M⁻¹ s⁻¹ and 1.16e+06 M⁻¹ s⁻¹ | 2.07 min and 1.96 min |  |  |  |  |  |  |  | 153 VF-DART (bispecific antibody, not shown: small tags and cut ends, One interchain disulfide between the Linker 2 cysteines; these linkers are left out of the letters.) chain 1: QSVLTQPPSVSAAPGQKVTISCSGSSSNIGNNYVSWYQQLPGTAPKLLIYDNNKRPSGIPDRFSGSKSGTSATLGITGLQTGDEADYYCGTWDSSLSGVVFGGGTKLTVLGGGSGGGGEVQLVESGGGLVQPGGSLRLSCAASGFTFSTYAMNWVRQAPGKGLEWVGRIRSKYNNYATYYADSVKGRFTISRDDSKNSLYLQMNSLKTEDTAVYYCVRHGNFGNSYVSWFAYWGQGTLVTVSS chain 2: QAVVTQEPSLTVSPGGTVTLTCRSSTGAVTTSNYANWVQQKPGQAPRGLIGGTNKRAPWTPARFSGSLLGGKAALTITGAQAEDEADYYCALWYSNLWVFGGGTKLTVLGGGGSGGGGEVQLVQSGAEVKKPGASVKVSCKASGYTFTSYGISWVRQAPGQGLEWMGWISAYNGNTNYAQKLQGRVTMTTDTSTSTAYMELRSLRSDDTAVYYCATIDTANAFGIWGQGTMVTVSS
 | 3.69 |  |  |  |  |  |  |  |  |  |  |  | 154 VF-DART (bispecific antibody, not shown: small tags and cut ends) chain 1: QSVLTQPPSVSAAPGQKVTISCSGSSSNIGNNYVSWYQQLPGTAPKLLIYDNNKRPSGIPDRFSGSKSGTSATLGITGLQTGDEADYYCGTWDSSLSSYVFGTGTKVTVLGGGSGGGGEVQLVESGGGLVQPGGSLRLSCAASGFTFSTYAMNWVRQAPGKGLEWVGRIRSKYNNYATYYADSVKGRFTISRDDSKNSLYLQMNSLKTEDTAVYYCVRHGNFGNSYVSWFAYWGQGTLVTVSS chain 2: QAVVTQEPSLTVSPGGTVTLTCRSSTGAVTTSNYANWVQQKPGQAPRGLIGGTNKRAPWTPARFSGSLLGGKAALTITGAQAEDEADYYCALWYSNLWVFGGGTKLTVLGGGGSGGGGEVQLVQSGAEVKKPGASVKVSCKASGYTFTSYGISWVRQAPGQGLEWMGWISAYNGNTNYAQKLQGRVTMTTDTSTSTAYMELRSLRSDDTAVYYCATIDTATAFDIWGQGTMVTVSS
 |  |  |  |  |  | 23.6 | 0.00447 | 189000 | 17.1 | 23.6 | 0.00447 | 189000 | 35 EK-DART (bispecific antibody) chain 1: QSVLTQPPSVSAAPGQKVTISCSGSSSNIGNNYVSWYQQLPGTAPKLLIYDNNKRPSGIPDRFSGSKSGTSATLGITGLQTGDEADYYCGTWDSSLSAVVFGGGTKLTVLGGGSGGGGEVQLVESGGGLVQPGGSLRLSCAASGFTFNTYAMNWVRQAPGKGLEWVARIRSKYNNYATYYADSVKDRFTISRDDSKNSLYLQMNSLKTEDTAVYYCVRHGNFGNSYVSWFAYWGQGTLVTVSSGGCGGGKVAALKEKVAALKEKVAALKEKVAALKE chain 2: QAVVTQEPSLTVSPGGTVTLTCRSSTGAVTTSNYANWVQQKPGQAPRGLIGGTNKRAPWTPARFSGSLLGGKAALTITGAQAEDEADYYCALWYSNLWVFGGGTKLTVLGGGGSGGGGEVQLVQSGAEVKKPGASVKVSCKASGYTFTSYGISWVRQAPGQGLEWMGWISAYNGNTNYAQKLQGRVTMTTDTSTSTAYMELRSLRSDDTAVYYCATIDTASAFDIWGQGTMVTVSSGGCGGGEVAALEKEVAALEKEVAALEKEVAALEK

Reference: patent US20160002357A1
